According to the DeepSol protein solubility set:

Test: soluble on expression in E. coli; label from the status in PepcDB or PDB records

Sequence | soluble on expression in E. coli
MSLITHISPLGSMDMLSQLEVDMLKRTASSDLYQLFRNCSLAVLNSGSLTDNSKELLSRFENFDINVLRRERGVKLELINPPEEAFVDGRIIRALQANLFAVLRDILFVYGQIHNTVRFPNLNLDNSVHITNLVFSILRNARALHVGEAPNMVVCWGGHSINENEYLYARRVGNQLGLRELNICTGCGPGAMEAPMKGAAVGHAQQRYKDSRFIGMTEPSIIAAEPPNPLVNELIIMPDIEKRLEAFVRIAHGIIIFPGGVGTAEELLYLLGILMNPANKDQVLPLILTGPKESADYFRVLDEFVVHTLGENARRHYRIIIDDAAEVARQMKKSMPLVKENRRDTGDAYSFNWSMRIAPDLQMPFEPSHENMANLKLYPDQPVEVLAADLRRAFSGIVAGNVKEVGIRAIEEFGPYKINGDKEIMRRMDDLLQGFVAQHRMKLPGSAYIPCYEICTEGHHHHHH | soluble
MSLIYFETERLIARDYLTNDYLPFSQMNADEQVMKYFPARLTQNESNAFLDRIQEELKSLGYGLFAIEVKSTGEFIGFTGFHEATFEATFTPCTEIGWRLKHSAWNQGYATEAALGALALAEEINTINEIYSFTAALNKPSENVMKKIHLTKIATFEHPALVNGDPLKPHVLYKKAEGHHHHHH | soluble
MSLKALIIMDMTNDFVFEKYEHEGKEYEGRLVAPLGKTIVEPIEALVKKVVNSGTVSLFRISKDHYDAFTNPELELKVAELGIDEVFMTGLVDEVCIYHNTLGFLERGFRTNVVRGCTAPFDPEKGRESLGELDACGTKMVDDIPSDIGVILLLEDEHDENSEEIKSGSWPPHSMKGTPGALTIKPIREALESREGHHHHHH | soluble
MSLKAPGALRLLCFSDTHEKHLKIPPHQIVPCDICICAGDFTKFGDPAEVKKFKDWFIKIPARYRVLIAGNHETTFDVERYGRMVTQMRKIKSDLPRETAKSIVQTDGIIYLENESVEIEGLKIYGSPQTHYWEFWAFYYPDKDGPKVWAKIPHDTDILVCHTCPRSTIDLMRGQHVGCKSLANAIKEVQPSLVIYGHLHEGYGVAKIGKSVIANVSLTNLARKLANRPMIFDVSFKTPEIPRPLPKQPEETEIPKDEGHHHHHH | soluble
MSLKAVYIQKTGGPATIIVGSLPVPKVRPKSVLIKVIAASINYVDLFIRSGIYQTDLPNPYILGRDAIGQVVEIGKDVIQFKVGDCVWTNSMGYDGRQGITSEYALIPEERLFLTPKNADSLKLIGAVHSAATATIVLQDIMELKPKQKLLIEGAAGHVGSKLVYLANEMGAEVVTTASLKDFSRLKQLSDAICFDYRDKSLFKKLKSAYPDGFDHIIDTSGEIPLQFNCDLLAPKGVISLITAPKDSQFDSRQFYMNCQQMKGFVISHASLKQLKKAGRILNDAFRQGQLLEEDMVIKKFDKAAEAHDLMETKKENRKIILVEGHHHHHH | not soluble
MSLKDILVIGATGKQGNAVVKQLLEDGWYVSALTRNKNNRKLSDIGHPHLSIVEGDLSDNVSLQSAMKGKYGLYSIQPIVKDDVSEELRQGMKIIEIAEQENIQHIVYSTAGGVNRNRTGPHFEVLAKIENRLMESNINATVIKPSFFMDNFLRIAKVEDERITLPEFINPNIKFTMISSIDIAKIASYIFAHPQSFTHQSIEIGSDEVTLSEAATIFSEVTGKSTVIEGEFVSGVAEKQWLEEKGYEVDFELMAEINPTRLSLSDWLKVQNYNEGHHHHHH | soluble
MSLKEGAWGIIGVPFDSTTSYHPGSRFGPIVVREASYGFEKYNTIFNTQLDNIFYDFGDVNVVFGNCKKTCDIIEDTVNELSDLKIKPLTIGGEHSLTIGVLNSLTKKYDDLTVVHLDAHRDLADTFIGELYSHASVMKRVHEMGVKELVQIGIRSASKEEEDFVKNQSNITTFKNNDVFHHLDNIEYYLSIIDTPIYLSIDMDVFDPSIAPTVGNPTPNGIAYGHIEAMLQTLSLKNVVGMDVVETAGDRLGDITAVSASKIIYDFLSLLEGHHHHHH | not soluble
